From patent US20220340685A1 (Novartis, published 2022) come the findings set out here.

Test [1] deals with T1, recombinant human ENTPD2 (residues 29-462, Y350A mutant) used in crystallographic studies (human, UniProt Q9Y5L3 29-462, N-linked glycosylation observed at Asn129, Asn294, Asn378 and Asn443).
T1 construct: also called human ENTPD2 Y350A; hENTPD2 Y350A
T1 sequence: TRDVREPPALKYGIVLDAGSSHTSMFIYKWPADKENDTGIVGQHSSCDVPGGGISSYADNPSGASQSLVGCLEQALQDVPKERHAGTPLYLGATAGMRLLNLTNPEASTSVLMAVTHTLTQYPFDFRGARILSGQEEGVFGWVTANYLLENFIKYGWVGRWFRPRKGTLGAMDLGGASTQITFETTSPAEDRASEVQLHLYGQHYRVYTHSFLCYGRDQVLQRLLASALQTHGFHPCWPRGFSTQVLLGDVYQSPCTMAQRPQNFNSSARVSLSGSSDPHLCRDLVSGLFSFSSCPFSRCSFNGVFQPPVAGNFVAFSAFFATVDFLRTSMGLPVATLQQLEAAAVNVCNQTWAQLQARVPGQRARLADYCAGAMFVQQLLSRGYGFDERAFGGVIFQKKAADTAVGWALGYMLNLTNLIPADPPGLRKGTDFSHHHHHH
Nature of the test: X-ray co-crystal structure.

Test [2] has as its target human FcγRIIIa, V158 (high affinity variant) (human, UniProt P08637 17-254). Nature of the test: cell-based or functional assay.
Test [3] concerns the target T2, mouse ENTPD2 on cells (mouse, UniProt O55026 1-495).
T2 sequence: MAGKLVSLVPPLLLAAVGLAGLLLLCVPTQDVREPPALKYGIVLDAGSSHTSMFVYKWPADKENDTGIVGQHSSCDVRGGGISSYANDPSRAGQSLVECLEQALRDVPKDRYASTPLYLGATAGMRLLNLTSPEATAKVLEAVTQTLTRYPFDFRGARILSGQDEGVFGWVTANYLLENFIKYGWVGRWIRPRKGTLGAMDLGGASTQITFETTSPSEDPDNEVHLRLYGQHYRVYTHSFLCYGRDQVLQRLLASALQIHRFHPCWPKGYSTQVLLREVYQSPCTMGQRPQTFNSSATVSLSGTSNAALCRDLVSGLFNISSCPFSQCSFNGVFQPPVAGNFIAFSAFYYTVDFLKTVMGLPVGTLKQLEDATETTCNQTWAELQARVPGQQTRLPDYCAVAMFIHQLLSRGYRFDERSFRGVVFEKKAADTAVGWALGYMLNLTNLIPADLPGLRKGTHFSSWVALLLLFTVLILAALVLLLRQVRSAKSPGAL
The experiment in a line: cell-based or functional assay.

Values joined by “and” are separate entries in the source; they are usually repeats but may differ in a detail not shown here. Equal entries are not always repeated.

Sequence of human FcγRIIIa, V158 (high affinity variant) (P08637 other isoform, or with tags, fused parts or gaps mutant limits assumed): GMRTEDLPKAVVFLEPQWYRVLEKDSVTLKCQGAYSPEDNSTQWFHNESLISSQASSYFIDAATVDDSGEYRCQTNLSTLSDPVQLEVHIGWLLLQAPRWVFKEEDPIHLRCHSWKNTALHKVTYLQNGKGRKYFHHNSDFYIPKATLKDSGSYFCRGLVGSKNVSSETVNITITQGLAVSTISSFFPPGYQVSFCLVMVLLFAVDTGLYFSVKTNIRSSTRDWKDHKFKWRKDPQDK

B1: anti-human ENTPD2 FAb23 (Fab, V domains shown)
VH: EVQLQQFGAELVKPGASVKISCKASGYTFTDYNMDWVKQSHGKSLEWIGDINPKYDISTYNQQFKGKATLTVDKSSSTAYMELRSLTSEDTAVYYCARRGFFLYYGINYYYFDVWGAGTTVTVSS
VL: QIVLTQSPAIMSASLGEEITLTCSASSSVSYIHWYQQKSGTSPTLLIYSTSNLASGVPSRFSGSGSGTFYSLTISSVEAEDAADYYCHQWSSYPWTFGGGTKLEIKR
modifications: residue 1 of the light chain observed and modeled as pyroglutamate in the crystal structure
notes: Fab with human CH1 and human kappa constant regions; variable regions of mAb17; also called anti-hENTPD2 FAb23; anti-human ENTPD2 MAB17 Fab
As for B1, the binding result in test [1] is “binds”.

B2: anti-human ENTPD2 mAb1 (antibody, human IgG1, kappa)
heavy: not shown
light: DIQLTQSPSSLSASVGDRVTITCSASSSVSYIHWFQQKPGKAPKLLIYSTSNLASGVPSRFSGSGSGTFFTLTISSLQPEDFATYFCHQWSSYPWTFGQGTKVEIKRTVAAPSVFIFPPSDEQLKSGTASVVCLLNNFYPREAKVQWKVDNALQSGNSQESVTEQDSKDSTYSLSSTLTLSKADYEKHKVYACEVTHQGLSSPVTKSFNRGEC
In the case of B2, the “FcγRIIIa signaling, Jurkat NFAT-luciferase reporter cells with RKO target cells, EC50” value in test [2] was 17.3 nM and 2.55 µg/mL.

B3: anti-human ENTPD2 FAb22 (Fab, V domains shown)
VH: EVKLEQSGPGLVKPSQSLSLTCSVTGYSITSGYYWNWIRQFPGNKLEWMSYISYDGDNNYNPSLKNRISITRDTSKNQFFLKLSSVTTEDTATYYCAGGYYRYGLSYYYVMDYWGQGTSVTVSA
VL: DIKMTQSPASLAVSLGQRATISCKASQSVDYDGNSYMNWYQQKPGQPPKLLIYAASNLESGIPARFSGSGSGTDFTLNIHPVEEEDAATYYCQQSNEDPPTFGGGTKLELKR
notes: Fab with human CH1 and human kappa constant regions; CDRs of mAb16; also called anti-hENTPD2 FAb22
Consider B3, for which the binding result in test [1] is on record as “binds”.

B4: anti-mouse ENTPD2 mAb13 (antibody, mouse IgG2a, kappa, V domains shown)
VH: QVQLVQSGAELKQPGQSVKISCKASGYTFTHYGMNWVKQAPGQGLKWMGWINTDTGNPTYADDFKGRFVFSLDTSVSTAYLQISNLKNEDTATYYCVRYGTLYSGYGFFFDSWGQGTLVTVSS
VL: DIMMTQSPSSLSVSAGEKATITCKSSQSLFNSNTNKNYLNWYLQKPGQSPKLLFYYASTRHTGVPDRFIGSGSGTDFTLTITSVQDEDLADYYCQQWYSYPWTFGPGTKLEIKR
B4: the “ENTPD2 Functional Assay IC50 (mouse ENTPD2 NIH/3T3 cell-based assay)” value (“ENTPD2 Functional Assay IC50” for short) in test [3] is 2.8 nM.

B5: anti-mouse ENTPD2 mAb14 (antibody, mouse IgG2a, kappa, V domains shown)
VH: QVQLVQSGAELKQPGQSVKISCKASGYTFWHYGMNWVKQAPGQGLKWMGWINTDTGNPTYADDFKGRFVFSLDTSVSTAYLQISNLKNEDTATYYCVRYGTLYSGYGFFFDSWGQGTLVTVSS
VL: DIMMTQSPSSLSVSAGEKATITCKSSQSLFNSNTNKNYLNWYLQKPGQSPKLLFYYASTRHTGVPDRFIGSGSGTDFTLTITSVQDEDLADYYCQQWYSYPWTFGPGTKLEIKR
On to B5, for which the “ENTPD2 Functional Assay IC50” value in test [3] came to 4.6 nM.

B6: anti-mouse ENTPD2 mAb15 (antibody, mouse IgG2a, kappa, V domains shown)
VH: QVQLVQSGAELKQPGQSVKISCKASGYTFHHYGMNWVKQAPGQGLKWMGWINTDTGNPTYADDFKGRFVFSLDTSVSTAYLQISNLKNEDTATYYCVRYGTLYSGYGFFFDSWGQGTLVTVSS
VL: DIMMTQSPSSLSVSAGEKATITCKSSQSLFNSNTNKNYLNWYLQKPGQSPKLLFYYASTRHTGVPDRFIGSGSGTDFTLTITSVQDEDLADYYCQQWYSYPWTFGPGTKLEIKR
As to B6, the “ENTPD2 Functional Assay IC50” value in test [3] was 5.9 nM.
